This sample holds only a part of the variants without activity.
B1: TPR 5TU (parent)
chain: GGAUCUUCUCGAUCUAACAAAAAAGACAAAUCUGCCACAAAGCUUGAGAGCAUCUUCGGAUGCAGAGGCGGCAGCCUUCGGUGGCGCGAUAGCGCCAACGUUCUCAACUAUGACACGCAAAACGCGUGCUCCGUUGAAUGGAGUUUAUCAUG

Variants of: B1
Test: polymerase ribozyme fitness, log enrichment relative to wild type (log ratio); higher = more active; in vitro selection for triplet polymerase activity
How it was run: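 A heterodimeric triplet polymerase ribozyme had each of its subunits mutagenized by PCR into a library, which was transcribed. One round of in vitro selection, done in triplicate, annealed each library with a biotinylated primer, its partner subunit and triplets, then incubated it frozen at −7 °C before gel excision of extended constructs, streptavidin-bead capture and RT-PCR. Fitness is the logarithm of genotype enrichment relative to wild-type enrichment, based on Illumina sequencing of inputs and outputs and inverse-variance-weighted replicate averages. A base-2 logarithm is used, and genotypes were kept only with ≥10 input reads and ≥1 read per output.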

Variant | polymerase ribozyme fitness (log ratio)
A26C C27U | -2.8
A52U C87U C103U | -2.81
A39C G88U A97G A122G | ≤ -4.2
A60U U77A | ≤ -4.2
C32A U61G U82A G92U C99G | ≤ -4.2
A24C A30G A73U C96A | ≤ -4.2
C51A A137C | ≤ -4.2
A20G G68U C85U | ≤ -4.2
C93A A138U | -4.18
A17U A21G A22C C38U A66U U82C G100A C125U | ≤ -4.2
U61A G84A G92U G100U | ≤ -4.2
A106G | 0.398
G48A C54A U55G G58U A97G | -3.22
U61A G94A | -2.08
C35G C85A C105G A113U | ≤ -4.2
A20U A122U U144G | -0.756
A49G C125G | -0.947
C10A G34U A40U C57U U78G C79U G84C C85A U104A A120C | ≤ -4.2
C76U U82G G83A C105A U134C U146A U148G | ≤ -4.2
G50C A52C G58C | ≤ -4.2
U6G G50U C95U | 0.0133

Variant | polymerase ribozyme fitness (log ratio)
C76G A91U A106G U135A | ≤ -4.2
U13G C36U A47U G84A A122G A138U | ≤ -4.2
A60C C76A G92U C95A U145G C149G | ≤ -4.2
A49C G84C U90G C103G A115U | ≤ -4.2
U31A C96U A115C U146C | -0.845
A29C A89G C95G U139C G140A G141U A142C | ≤ -4.2
A52G A73G C85U | -0.163
G100A G126A | -4.02
G34A G84A U134G | -2.82
C8G A24U A29G C54G C57U G94A A98G U135G | ≤ -4.2
A28U G83C G92U C96U | ≤ -4.2
G42U U44A C85A C96G A115C C129A | ≤ -4.2
A40C G42U U55A C85A | ≤ -4.2
A28C U82A | ≤ -4.2
A3G C27U C51A G59A C85U G88A A115U G141A | ≤ -4.2
G71U A89U | -2.83
C14G A26U C27G C35A A52C A91G A107G G126U U130A | ≤ -4.2
C36U C79A C87U A115C A122C C131G | ≤ -4.2
U53A G70A C99A G124C | ≤ -4.2
A49C A119U | ≤ -4.2
A21C G68C C69A C93G U144G | ≤ -4.2

Variant | polymerase ribozyme fitness (log ratio)
U44A A47U C72G G86C A91C | ≤ -4.2
A17C A19U G58A A97G U102G A119G | -3.63
C8A A26G G59U A89G C93G C95U C108U C132A | ≤ -4.2
A41C C51A U56A G58C U82C C87A G136U | ≤ -4.2
A21C G68U | ≤ -4.2
A137U G143U | -3.39
C99U U102A | -1.33
C69A U139C G140A U148A | ≤ -4.2
G58C C87A | ≤ -4.2
G92U U148A | -2.71
U82C C95U C131G A142C | ≤ -4.2
A106C C116G | -0.324
C51U C75G G88A U130A | ≤ -4.2
A12G A23U C35U C76A C93U A97U C116A | -3.12
A19C C57U G86A | -0.316
C57A G92U C105G | -1.2
A52G C85A G140U | ≤ -4.2
C10U U15A A23U C32A C51U U55G U111G | ≤ -4.2
G25C A30U U78C C96G | -3.97
A20C U53A U55A | -2.52
A19U G59A G83U U139G | -1.28

Variant | polymerase ribozyme fitness (log ratio)
G84A U144A | -1.65
U4G C76U G84A C95U U111G | ≤ -4.2
A23C G58A C87U A91U | ≤ -4.2
A52G C57A G92U | -0.753
G84U A89G | -3.82
A21U A26U G83A A106G | -3.03
G92A C95A C125G | -3.82
A20U A40U U56A C96A G141C | -2.73
A37U A47C C85U C95U A113C U148A G152U | ≤ -4.2
A73G C125G | -0.161
G34U A40G C72U C96G | ≤ -4.2
G59C G86A A89G | -4
G68U A73G C76U A91U A98G C99A G112U | ≤ -4.2
C43U U56A C87A G152U | ≤ -4.2
C132U A150G | -2.47
C114U A147C | -2.83
A20U A30G U53A U55G C63G G141U | ≤ -4.2
U55A U134C | -0.296
C51G C85U | -1.91
A23G C87U | -3.14

Reference: the RNAGym collection of RNA variant scans (doi:10.1073/pnas.2313332121)
